Earlier results as cited in PMC6375914.
pKd: −log10 of the molar value.

What was measured:
[1] = target: Ubc9 (Homo sapiens) (UniProt P63279); test: ITC
[2] = target: Ubc9 (Homo sapiens) (UniProt P63279); test: SPR

UniProt P63279, sequence (P63279 2-158): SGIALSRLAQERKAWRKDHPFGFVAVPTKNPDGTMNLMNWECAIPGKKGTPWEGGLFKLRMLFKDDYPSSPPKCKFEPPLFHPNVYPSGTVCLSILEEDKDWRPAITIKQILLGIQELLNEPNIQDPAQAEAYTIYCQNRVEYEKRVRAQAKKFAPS

pKd [1]: 6.60
pKd [2]: 6.46
Substance: SUMO1 (from UniProt P63165)
